Test results: patent US20200353062A1, “PHARMACEUTICAL COMPOSITIONS, METHODS FOR PREPARATION COMPRISING SIZING OF LIPID VESICLE PARTICLES, AND USES THEREOF” (IMMUNOVACCINE TECHNOLOGIES INC., priority 2017, published 2020)
Values joined by “and” are separate entries in the source; they are usually repeats but may differ in a detail not shown here. Identical values can stand only once. Where no end group is shown, it is not given here. [ ]: non-standard residue; d: D form. Met(O) = CS(=O)CC[C@H](N)C(=O)O

Experiments:
[1] = Lipid assay and degradant limit test by RP-HPLC; conditions: for Lipid Impurities (HPLC) / Lipid Impurities (RP-HPLC): % of DOPC area; for Lipid Impurities (RP-HPLC): solubilized Batch #4 in vials, room temperature
[2] = Peptide assay and peptide impurities by RP-HPLC; format: physicochemical; conditions: for Peptide Content by RP-HPLC / Peptide Impurities by RP-HPLC (% Area): compositions from sized lipid vesicle particles
Procedure: Identification and quantification of peptides was performed using a reversed-phase HPLC (RP-HPLC) method. The method utilizes an Agilent 1100 Series HPLC system equipped with a Phenomenex Luna 5 μm C8(2) column. The mobile phase is a gradient of 16-37% (v/v) acetonitrile in 0.1% (v/v) aqueous trifluoroacetic acid. Column temperature is maintained at 50° C., and UV-PDA detection is performed at 215 nm. The assay may also be used to identify peptide impurities. The tests were validated to the extent required for a phase 1/2 clinical phase study (data not included).

[3] = compositions from sized lipid vesicle particles, Average (n = 5)
[4] = compositions from sized lipid vesicle particles, individual Vial 1-5
[5] = sized-vesicle preparation stored at 5° C. ± 3° C., 0 months
[6] = sized-vesicle preparation stored at 5° C. ± 3° C., 3 months
[7] = sized-vesicle preparation stored at 5° C. ± 3° C., 6 months
[8] = sized-vesicle preparation stored at 5° C. ± 3° C., 9 months
[9] = sized-vesicle preparation stored at 5° C. ± 3° C., 12 months
[10] = sized-vesicle preparation stored at 5° C. ± 3° C., 18 months
[11] = sized-vesicle preparation stored at −20° C. ± 5° C., 0 months
[12] = sized-vesicle preparation stored at −20° C. ± 5° C., 6 months
[13] = sized-vesicle preparation stored at −20° C. ± 5° C., 12 months
[14] = sized-vesicle preparation stored at −20° C. ± 5° C., 18 months
[15] = solubilized Batch #4 in syringe, t = 60 min

Row | Compound | Peptide Content by RP-HPLC ([2]; Average (n = 5)) [mg/mL] | Peptide Content by RP-HPLC ([2]; individual Vial 1-5) | Peptide Assay (RP-HPLC) [2, 5] [mg/mL] | Peptide Assay (RP-HPLC) [2, 6] [mg/mL] | Peptide Assay (RP-HPLC) [2, 7] [mg/mL] | Peptide Assay (RP-HPLC) [2, 8] [mg/mL] | Peptide Assay (RP-HPLC) [2, 9] [mg/mL] | Peptide Assay (RP-HPLC) [2, 10] [mg/mL] | Peptide Assay (RP-HPLC) [2, 11] [mg/mL] | Peptide Assay (RP-HPLC) [2, 12] [mg/mL] | Peptide Assay (RP-HPLC) [2, 13] [mg/mL] | Peptide Assay (RP-HPLC) [2, 14] [mg/mL] | other results
1 | CC(C)CCC[C@@H](C)[C@H]1CC[C@H]2[C@@H]3CC=C4C[C@@H](O)CC[C@]4(C)[C@H]3CC[C@]12C [Cholesterol, cholesterol] |  |  |  |  |  |  |  |  |  |  |  |  | Lipid Content by RP-HPLC [1, 3]: 11.36 mg/mL; Lipid Content by RP-HPLC [1, 4]: 11.20 mg/mL and 11.62 mg/mL and 11.48 mg/mL and 11.44 mg/mL and 11.05 mg/mL; Lipid Assay (RP-HPLC) [1, 5]: 11.03 mg/mL; Lipid Assay (RP-HPLC) [1, 6]: 11.30 mg/mL; Lipid Assay (RP-HPLC) [1, 7]: 12.26 mg/mL; Lipid Assay (RP-HPLC) [1, 8]: 12.11 mg/mL; Lipid Assay (RP-HPLC) [1, 9]: 12.00 mg/mL; Lipid Assay (RP-HPLC) [1, 10]: 12.25 mg/mL; Lipid Assay (RP-HPLC) [1, 11]: 11.03 mg/mL; Lipid Assay (RP-HPLC) [1, 12]: 12.14 mg/mL; Lipid Assay (RP-HPLC) [1, 13]: 11.10 mg/mL; Lipid Assay (RP-HPLC) [1, 14]: 12.85 mg/mL
2 | CCCCCCCC/C=C\CCCCCCCC(=O)OC[C@H](COP(=O)([O-])OCC[N+](C)(C)C)OC(=O)CCCCCCC/C=C\CCCCCCCC [DOPC, 1,2-Dioleoyl-sn-glycero-3-phosphocholine] |  |  |  |  |  |  |  |  |  |  |  |  | Lipid Content by RP-HPLC [1, 3]: 119.03 mg/mL; Lipid Content by RP-HPLC [1, 4]: 117.39 mg/mL and 121.44 mg/mL and 120.26 mg/mL and 120.00 mg/mL and 116.07 mg/mL; Lipid Assay (RP-HPLC) [1, 5]: 118.41 mg/mL; Lipid Assay (RP-HPLC) [1, 6]: 112.91 mg/mL; Lipid Assay (RP-HPLC) [1, 7]: 124.60 mg/mL; Lipid Assay (RP-HPLC) [1, 8]: 130.11 mg/mL; Lipid Assay (RP-HPLC) [1, 9]: 120.00 mg/mL; Lipid Assay (RP-HPLC) [1, 10]: 121.35 mg/mL; Lipid Assay (RP-HPLC) [1, 11]: 118.41 mg/mL; Lipid Assay (RP-HPLC) [1, 12]: 123.60 mg/mL; Lipid Assay (RP-HPLC) [1, 13]: 102.63 mg/mL; Lipid Assay (RP-HPLC) [1, 14]: 128.00 mg/mL
3 | CCCCCCCC/C=C\CCCCCCCC(=O)O [Oleic Acid, oleic acid] |  |  |  |  |  |  |  |  |  |  |  |  | DOPC degradants by RP-HPLC [1, 4]: 0.60 mg/mL and 0.50 mg/mL; Lipid Degradants (RP-HPLC) [1, 5]: 0.3 mg/mL; Lipid Degradants (RP-HPLC) [1, 6]: 0.2 mg/mL; Lipid Degradants (RP-HPLC) [1, 7]: 0.2 mg/mL; Lipid Degradants (RP-HPLC) [1, 8]: 0.4 mg/mL; Lipid Degradants (RP-HPLC) [1, 9]: 0.2 mg/mL; Lipid Degradants (RP-HPLC) [1, 10]: 0.2 mg/mL; Lipid Degradants (RP-HPLC) [1, 11]: 0.3 mg/mL; Lipid Degradants (RP-HPLC) [1, 12]: 0.3 mg/mL; Lipid Degradants (RP-HPLC) [1, 13]: 0.2 mg/mL; Lipid Degradants (RP-HPLC) [1, 14]: 0.3 mg/mL; DOPC degradants by RP-HPLC [1, 15]: 0.60 mg/mL
4 | CCCCCCCC/C=C\CCCCCCCC(=O)O[C@H](COC(=O)CCCCCCCCCCCCCCC)COP(=O)([O-])OCC[N+](C)(C)C [POPC] |  |  |  |  |  |  |  |  |  |  |  |  | Lipid Impurities (HPLC) ([1]; solubilized Batch #4 in syringe, t = 0): 2.10%; Lipid Impurities (HPLC) ([1]; solubilized Batch #4 in syringe, t = 30 min): 2.91%; Lipid Impurities (HPLC) [1, 15]: 2.94%; Lipid Impurities (RP-HPLC) ([1]; t = 0): 2.65%; Lipid Impurities (RP-HPLC) ([1]; t = 4 h): 1.21%; Lipid Impurities (RP-HPLC) ([1]; t = 24 h): 1.04%; Lipid Impurities (% Area) [1, 3]: 2.65%; Lipid Impurities (% Area) [1, 4]: 2.79% and 2.62% and 2.63% and 2.61% and 2.59%
5 | FTELTLGEF (Survivin HLA-A1 (modified)) [SurA1.T, survivin peptide antigen [HLA-A1]] | 1.09 | 1.07 mg/mL (2×) and 1.10 mg/mL and 1.09 mg/mL and 1.11 mg/mL | 1.03 | 1.02 | 1.03 | 1.02 | 0.97 | 1.07 | 1.03 | 1.04 | 0.99 | 1.04 | 
6 | LMLGEFLKL (Survivin HLA-A2 (modified)) [SurA2.M, survivin peptide antigen [HLA-A2]] | 1.14 | 1.11 mg/mL and 1.14 mg/mL (2×) and 1.15 mg/mL and 1.18 mg/mL | 0.95 | 0.91 | 0.91 | 0.89 | 0.88 | 0.91 | 0.95 | 0.92 | 0.89 | 0.91 | 
7 | LPPAWQPFL (Survivin HLA-B7) [SurB7, survivin peptide antigen [HLA-B7]] | 1.09 | 1.07 mg/mL (2×) and 1.11 mg/mL (2×) and 1.08 mg/mL | 1.09 | 1.01 | 1.00 | 1.00 | 0.99 | 1.03 | 1.09 | 1.01 | 1.01 | 1.03 | 
8 | RISTFKNWPK (Survivin HLA-A3 (modified)) [SurA3.K, survivin peptide antigen [HLA-A3], added after sizing] | 0.89 | 0.86 mg/mL and 0.90 mg/mL and 0.91 mg/mL and 0.88 mg/mL and 0.92 mg/mL | 1.04 | 0.99 | 0.93 | 0.92 | 0.93 | 1.02 | 1.04 | 0.98 | 0.97 | 1.02 | loss in content from the nominal target limit in the final bulk ([2]; peptide combined with lipid mixture before size extrusion (retained by extruder membrane)): approximately 25%
9 | RRT 3.66 LMLGEFLKL (M oxidized to sulfoxide; SEQ ID NO: 2): peptide impurity: LMLGEFLKL with M oxidized to sulfoxide (L[Met(O)]LGEFLKL) |  |  |  |  |  |  |  |  |  |  |  |  | Peptide Impurities by RP-HPLC (% Area) ([2]; Average (n = 5)): 0.55%; Peptide Impurities by RP-HPLC (% Area) ([2]; individual Vial 1-5): 0.65% and 0.40% and 0.53% and 0.58% and 0.57%
10 | STFKNWPFL (Survivin HLA-A24) [SurA24, survivin peptide antigen [HLA-A24]] | 0.93 | 0.92 mg/mL and 0.94 mg/mL and 0.93 mg/mL and 0.91 mg/mL and 0.95 mg/mL | 1.00 | 0.98 | 0.98 | 0.95 | 0.95 | 0.99 | 1.00 | 0.99 | 0.97 | 1.00 | 
